According to article PMC5983706, “A Rationally Designed Hsp70 Variant Rescues the Aggregation-Associated Toxicity of Human IAPP in Cultured Pancreatic Islet β-Cells” (International Journal of Molecular Sciences, 2018):
Ends that are not written are not given here. FAM = carboxyfluorescein

Biological target: T1, Hsp70 wild type (human Hsp70 1A) (human, UniProt P0DMV8 1-641)
T1 construct: human Hsp70 1A, GenBank entry NP005336; also called Hsp70 WT; heat shock protein 70 kDa
Assay: other fluorescence titration; 0.15 µM FAM-hIAPP with 0 to 36 µM chaperone in 50 mM Tris pH 7.4, 150 mM KCl, 5 mM MgCl2, 1 h at room temperature; FAM fluorescence at 520 nm; one-site binding model
Conditions: both partners purified

T1 sequence (P0DMV8 whole entry): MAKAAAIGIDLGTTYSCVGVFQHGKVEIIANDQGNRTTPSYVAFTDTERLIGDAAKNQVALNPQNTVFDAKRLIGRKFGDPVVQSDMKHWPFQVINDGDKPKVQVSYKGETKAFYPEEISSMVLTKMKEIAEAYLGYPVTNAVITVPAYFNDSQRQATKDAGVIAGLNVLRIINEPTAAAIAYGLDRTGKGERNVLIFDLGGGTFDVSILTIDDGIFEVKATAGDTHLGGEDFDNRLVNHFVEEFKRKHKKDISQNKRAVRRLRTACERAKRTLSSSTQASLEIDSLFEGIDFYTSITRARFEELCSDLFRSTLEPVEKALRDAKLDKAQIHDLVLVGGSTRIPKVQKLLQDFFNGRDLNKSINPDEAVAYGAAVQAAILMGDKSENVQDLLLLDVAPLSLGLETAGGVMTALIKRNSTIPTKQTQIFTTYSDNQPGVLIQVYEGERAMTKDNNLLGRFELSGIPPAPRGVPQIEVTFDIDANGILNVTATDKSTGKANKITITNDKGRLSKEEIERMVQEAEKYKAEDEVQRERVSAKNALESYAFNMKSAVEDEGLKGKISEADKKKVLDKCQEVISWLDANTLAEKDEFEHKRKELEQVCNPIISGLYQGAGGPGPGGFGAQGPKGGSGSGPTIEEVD

- Kd: 2200 ± 300 nM
B1: FAM-hIAPP (human islet amyloid polypeptide N-terminally labelled with carboxyfluorescein) (peptide, UniProt P10997 34-70, looked up)
peptide: {FAM}-KCNTATCATQRLANFLVHSSNNFGAILSSTNVGSNTY
modifications: ends and bridges not checked
notes: human islet amyloid polypeptide (hIAPP, amylin), the mature hormone cut from its precursor; also called amylin; source: bought: Phoenix Pharmaceuticals
